From patent US7211395 (dated 2007)

Columns and labels:
[1] = target: mouse serum albumin (mouse, UniProt P07724); test: FP, PBS pH 7.4
[2] = target: T1, human serum albumin (HSA) (human, UniProt P02768); test: FP, PBS pH 7.4
[3] = target: T1, human serum albumin (HSA); test: FP, pH 7.4, 0.14 M NaCl
[4] = target: T2, rhesus serum albumin (rhesus macaque, UniProt Q28522); test: FP, PBS pH 7.4
T2 chain: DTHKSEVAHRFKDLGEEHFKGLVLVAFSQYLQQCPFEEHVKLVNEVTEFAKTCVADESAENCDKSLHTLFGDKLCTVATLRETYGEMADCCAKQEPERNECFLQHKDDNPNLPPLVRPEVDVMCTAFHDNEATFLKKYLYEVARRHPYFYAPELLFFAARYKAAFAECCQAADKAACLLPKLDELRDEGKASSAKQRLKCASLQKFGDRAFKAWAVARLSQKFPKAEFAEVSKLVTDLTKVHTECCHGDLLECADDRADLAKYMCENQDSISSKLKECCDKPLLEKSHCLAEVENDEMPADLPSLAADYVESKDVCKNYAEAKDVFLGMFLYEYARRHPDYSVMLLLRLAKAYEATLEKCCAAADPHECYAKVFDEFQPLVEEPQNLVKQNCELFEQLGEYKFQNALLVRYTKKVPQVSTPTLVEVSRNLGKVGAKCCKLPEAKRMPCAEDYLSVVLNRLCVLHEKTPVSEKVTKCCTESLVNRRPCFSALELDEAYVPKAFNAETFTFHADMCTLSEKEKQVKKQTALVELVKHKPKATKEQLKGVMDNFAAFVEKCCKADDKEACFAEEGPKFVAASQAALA

[5] = target: T3, chicken ovalbumin (chicken, UniProt P01012); test: FP, pH 6.2, no NaCl
T3 chain: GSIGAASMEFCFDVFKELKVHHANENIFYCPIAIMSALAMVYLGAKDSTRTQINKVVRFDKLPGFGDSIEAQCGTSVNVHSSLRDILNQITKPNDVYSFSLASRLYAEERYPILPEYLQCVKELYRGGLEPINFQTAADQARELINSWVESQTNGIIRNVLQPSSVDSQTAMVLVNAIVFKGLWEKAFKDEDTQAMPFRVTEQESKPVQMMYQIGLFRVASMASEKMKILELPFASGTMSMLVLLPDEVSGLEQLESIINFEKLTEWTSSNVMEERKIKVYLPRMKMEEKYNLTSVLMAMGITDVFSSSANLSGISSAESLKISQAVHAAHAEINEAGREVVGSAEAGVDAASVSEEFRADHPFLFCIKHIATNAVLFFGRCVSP

[6] = target: T1, human serum albumin (HSA); test: FP, pH 6.2, 0.14 M NaCl
[7] = target: T4, pig serum albumin (pig, UniProt P08835); test: FP, PBS pH 7.4
T4 chain: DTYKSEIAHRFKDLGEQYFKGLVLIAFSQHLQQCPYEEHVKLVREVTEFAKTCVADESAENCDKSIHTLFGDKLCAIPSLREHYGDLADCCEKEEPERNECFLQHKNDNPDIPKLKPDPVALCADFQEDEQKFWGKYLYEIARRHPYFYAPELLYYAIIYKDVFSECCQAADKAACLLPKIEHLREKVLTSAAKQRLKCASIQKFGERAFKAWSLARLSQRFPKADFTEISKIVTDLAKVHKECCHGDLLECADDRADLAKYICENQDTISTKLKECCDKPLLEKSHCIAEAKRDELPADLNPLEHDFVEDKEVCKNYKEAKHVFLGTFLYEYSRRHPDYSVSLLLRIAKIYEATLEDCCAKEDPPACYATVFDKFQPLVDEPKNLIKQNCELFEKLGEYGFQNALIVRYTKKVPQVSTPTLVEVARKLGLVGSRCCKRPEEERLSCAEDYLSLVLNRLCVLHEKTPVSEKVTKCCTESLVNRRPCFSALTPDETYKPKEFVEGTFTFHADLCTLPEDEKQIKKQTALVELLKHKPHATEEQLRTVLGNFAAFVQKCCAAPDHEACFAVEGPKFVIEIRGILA

[8] = target: T1, human serum albumin (HSA); test: FP, pH 6.2, no NaCl
[9] = target: T1, human serum albumin (HSA); test: FP, pH 6.2, no NaCl; remark: listed apart in the source
[10] = target: T4, pig serum albumin; test: FP, pH 6.2, no NaCl
[11] = target: T5, rat serum albumin (rat, UniProt P02770); test: FP, PBS pH 7.4
T5 chain: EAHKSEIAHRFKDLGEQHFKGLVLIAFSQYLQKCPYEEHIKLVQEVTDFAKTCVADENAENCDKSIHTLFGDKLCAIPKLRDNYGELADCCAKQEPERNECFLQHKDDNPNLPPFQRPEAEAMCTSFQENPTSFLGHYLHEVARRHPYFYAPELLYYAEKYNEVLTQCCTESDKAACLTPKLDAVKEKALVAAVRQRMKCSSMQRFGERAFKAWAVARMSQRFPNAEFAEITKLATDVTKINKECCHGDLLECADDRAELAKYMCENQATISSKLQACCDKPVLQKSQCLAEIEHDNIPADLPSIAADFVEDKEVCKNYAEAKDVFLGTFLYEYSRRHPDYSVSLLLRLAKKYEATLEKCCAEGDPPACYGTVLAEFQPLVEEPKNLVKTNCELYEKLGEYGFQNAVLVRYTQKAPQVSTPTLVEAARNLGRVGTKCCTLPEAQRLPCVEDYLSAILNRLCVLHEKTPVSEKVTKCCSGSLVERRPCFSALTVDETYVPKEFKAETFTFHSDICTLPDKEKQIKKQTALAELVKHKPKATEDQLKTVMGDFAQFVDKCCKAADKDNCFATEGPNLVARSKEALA

[12] = target: bovine serum albumin (bovine, UniProt P02769); test: FP, PBS pH 7.4
Chain of bovine serum albumin (P02769 25-607): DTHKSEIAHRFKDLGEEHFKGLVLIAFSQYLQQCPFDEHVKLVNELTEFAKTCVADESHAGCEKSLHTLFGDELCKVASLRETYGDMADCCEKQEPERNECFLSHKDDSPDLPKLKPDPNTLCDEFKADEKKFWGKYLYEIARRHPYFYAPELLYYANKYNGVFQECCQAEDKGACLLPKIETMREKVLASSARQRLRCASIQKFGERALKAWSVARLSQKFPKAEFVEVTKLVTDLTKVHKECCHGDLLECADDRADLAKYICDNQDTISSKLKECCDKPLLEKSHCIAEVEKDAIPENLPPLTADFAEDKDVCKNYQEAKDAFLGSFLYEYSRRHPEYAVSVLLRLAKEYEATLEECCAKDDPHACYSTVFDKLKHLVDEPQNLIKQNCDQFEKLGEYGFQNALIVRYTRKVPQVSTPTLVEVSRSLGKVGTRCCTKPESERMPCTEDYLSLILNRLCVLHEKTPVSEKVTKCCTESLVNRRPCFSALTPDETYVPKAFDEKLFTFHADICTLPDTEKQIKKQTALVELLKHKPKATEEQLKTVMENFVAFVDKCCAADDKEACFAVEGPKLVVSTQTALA

Chain of mouse serum albumin (P07724 25-608): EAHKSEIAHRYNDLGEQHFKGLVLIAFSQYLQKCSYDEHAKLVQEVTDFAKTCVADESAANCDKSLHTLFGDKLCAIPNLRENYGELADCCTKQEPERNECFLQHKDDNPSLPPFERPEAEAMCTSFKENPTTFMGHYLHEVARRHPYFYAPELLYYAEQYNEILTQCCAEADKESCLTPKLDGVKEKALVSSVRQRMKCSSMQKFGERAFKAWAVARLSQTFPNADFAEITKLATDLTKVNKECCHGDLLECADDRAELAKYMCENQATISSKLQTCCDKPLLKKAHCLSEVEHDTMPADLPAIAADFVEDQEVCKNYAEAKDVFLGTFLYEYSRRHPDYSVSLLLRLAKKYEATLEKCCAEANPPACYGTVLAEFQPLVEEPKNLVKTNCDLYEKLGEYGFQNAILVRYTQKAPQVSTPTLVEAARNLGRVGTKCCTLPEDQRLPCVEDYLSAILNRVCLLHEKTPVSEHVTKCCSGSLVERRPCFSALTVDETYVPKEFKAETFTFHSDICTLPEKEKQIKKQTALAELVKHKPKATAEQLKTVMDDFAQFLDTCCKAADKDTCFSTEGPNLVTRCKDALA

- Kd [1]: > 200 µM
- Kd [2]: 84 µM
- Kd [3]: 84 µM
- Kd [4]: 82 µM
- Kd [5]: > 200 µM
- Kd [6]: 9 µM
- Kd [7]: > 200 µM
- Kd [8]: 0.9 µM
- Kd [9]: 0.9 µM
- Kd [10]: 21 µM
- Kd [11]: 117 µM
- Kd [12]: > 200 µM
B1: DX-321 (peptide)
chain: AEGTGDRNMCKFSWIRSPAFCARADPEXK
modifications: disulfide cyclic, N-acetyl, C-amide, X = 6-aminohexanoic acid, fluorescein on Lys
